We go through one molecule from US20060246077 (published 2006).

The target in this test is MUC18-V5-His (extracellular domain) (human, UniProt P43121). The test can be described thus: SPR, average. In general terms: Surface plasmon resonance follows binding to a sensor surface in real time, without labels.
MUC18-V5-His (extracellular domain), sequence (P43121 1-559): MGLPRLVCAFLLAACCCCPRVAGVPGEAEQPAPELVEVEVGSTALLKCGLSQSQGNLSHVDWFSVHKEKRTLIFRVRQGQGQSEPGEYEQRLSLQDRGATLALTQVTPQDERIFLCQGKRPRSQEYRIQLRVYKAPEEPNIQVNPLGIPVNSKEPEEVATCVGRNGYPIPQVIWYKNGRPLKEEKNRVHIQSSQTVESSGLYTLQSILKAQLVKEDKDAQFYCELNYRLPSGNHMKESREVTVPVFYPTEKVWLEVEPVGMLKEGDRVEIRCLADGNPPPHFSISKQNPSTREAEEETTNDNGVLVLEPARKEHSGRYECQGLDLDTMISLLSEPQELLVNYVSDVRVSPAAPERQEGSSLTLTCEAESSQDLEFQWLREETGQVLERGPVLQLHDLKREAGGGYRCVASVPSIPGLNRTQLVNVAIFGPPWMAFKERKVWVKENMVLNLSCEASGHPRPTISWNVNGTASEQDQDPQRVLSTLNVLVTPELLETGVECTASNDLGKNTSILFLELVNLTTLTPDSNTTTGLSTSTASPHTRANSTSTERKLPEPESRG

B1: c3.19.1 (antibody, V domains shown)
VH: QVQLQESGPGLVKPSETLSLTCTVSGGSISSYYWSWIRQPPGKGLEWIGYIYYTWTSNYNPSLKSRVTISVDTSKNQFSLRLSSVTAADTAVYYCARDQGQWLLPDAFDIWGQGTMVTVSS
VL: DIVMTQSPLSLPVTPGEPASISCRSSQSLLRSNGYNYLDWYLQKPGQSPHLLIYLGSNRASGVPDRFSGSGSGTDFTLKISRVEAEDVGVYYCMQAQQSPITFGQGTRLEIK
By Kd is commonly meant the concentration at which binding is half-saturated. A higher Kd goes with weaker binding. In turn, B1 yielded a Kd of 0.61 nM.
